Data reported in patent US20180085432A1, “STING (Stimulator of Interferon Genes), A Regulator of Innate Immune Responses” (University of Miami, priority 2008, published 2018).

B1: TBK1 (protein kinase panel) (enzyme)
chain: MQSTSNHLWLLSDILGQGATANVFRGRHKKTGDLFAIKVFNNISFLRPVDVQMREFEVLKKLNHKNIVKLFAIEEETTTRHKVLIMEFCPCGSLYTVLEEPSNAYGLPESEFLIVLRDVVGGMNHLRENGIVHRDIKPGNIMRVIGEDGQSVYKLTDFGAARELEDDEQFVSLYGTEEYLHPDMYERAVLRKDHQKKYGATVDLWSIGVTFYHAATGSLPFRPFEGPRRNKEVMYKIITGKPSGAISGVQKAENGPIDWSGDMPVSCSLSRGLQVLLTPVLANILEADQEKCWGFDQFFAETSDILHRMVIHVFSLQQMTAHKIYIHSYNTATIFHELVYKQTKIISSNQELIYEGRRLVLEPGRLAQHFPKTTEENPIFVVSREPLNTIGLIYEKISLPKVHPRYDLDGDASMAKAITGVVCYACRIASTLLLYQELMRKGIRWLIELIKDDYNETVHKKTEVVITLDFCIRNIEKTVKVYEKLMKINLEAAELGEISDIHTKLLRLSSSQGTIETSLQDIDSRLSPGGSLADAWAHQEGTHPKDRNVEKLQVLLNCMTEIYYQFKKDKAERRLAYNEEQIHKFDKQKLYYHATKAMTHFTDECVKKYEAFLNKSEEWIRKMLHLRKQLLSLTNQCFDIEEEVSKYQEYTNELQETLPQKMFTASSGIKHTMTPIYPSSNTLVEMTLGMKKLKEEMEGVVKELAENNHILERFGSLTMDGGLRNVDCL
B2: NEK9 (enzyme)
chain: MSVLGEYERHCDSINSDFGSESGGCGDSSPGPSASQGPRAGGGAAEQEELHYIPIRVLGRGAFGEATLYRRTEDDSLVVWKEVDLTRLSEKERRDALNEIVILALLQHDNIIAYYNHFMDNTTLLIELEYCNGGNLYDKILRQKDKLFEEEMVVWYLFQIVSAVSCIHKAGILHRDIKTLNIFLTKANLIKLGDYGLAKKLNSEYSMAETLVGTPYYMSPELCQGVKYNFKSDIWAVGCVIFELLTLKRTFDATNPLNLCVKIVQGIRAMEVDSSQYSLELIQMVHSCLDQDPEQRPTADELLDRPLLRKRRREMEEKVTLLNAPTKRPRSSTVTEAPIAVVTSRTSEVYVWGGGKSTPQKLDVIKSGCSARQVCAGNTHFAVVTVEKELYTWVNMQGGTKLHGQLGHGDKASYRQPKHVEKLQGKAIRQVSCGDDFTVCVTDEGQLYAFGSDYYGCMGVDKVAGPEVLEPMQLNFFLSNPVEQVSCGDNHVVVLTRNKEVYSWGCGEYGRLGLDSEEDYYTPQKVDVPKALIIVAVQCGCDGTFLLTQSGKVLACGLNEFNKLGLNQCMSGIINHEAYHEVPYTTSFTLAKQLSFYKIRTIAPGKTHTAAIDERGRLLTFGCNKCGQLGVGNYKKRLGINLLGGPLGGKQVIRVSCGDEFTIAATDDNHIFAWGNGGNGRLAMTPTERPHGSDICTSWPRPIFGSLHHVPDLSCRGWHTILIVEKVLNSKTIRSNSSGLSIGTVFQSSSPGGGGGGGGGEEEDSQQESETPDPSGGFRGTMEADRGMEGLISPTEAMGNSNGASSSCPGWLRKELENAEFIPMPDSPSPLSAAFSESEKDTLPYEELQGLKVASEAPLEHKPQVEASSPRLNPAVTCAGKGTPLTPPACACSSLQVEVERLQGLVLKCLAEQQKLQQENLQIFTQLQKLNKKLEGGQQVGMHSKGTQTAKEEMEMDPKPDLDSDSWCLLGTDSCRPSL
B3: RIPK5 (enzyme)
chain: SICSQFRTRLNSSHEAFAASLRQLEAGHSGRLEKTEDLWLRVRKDHAPRLARLSLESCSLQDVLLHRKPKLGQELGRGQYGVVYLCDNWGGHFPCALKSVVPPDEKHWNDLALEFHYMRSLPKHERLVDLHGSVIDYNYGGGSSIAVLLIMERLHRDLYTGLKAGLTLETRLQIALDVVEGIRFLHSQGLVHRDIKLKNVLLDKQNRAKITDLGFCKPEAMMSGSIVGTPIHMAPELFTGKYDNSVDVYAFGILFWYICSGSVKLPEAFERCASKDHLWNNVRRGARPERLPVFDEECWQLMEACWDGDPLKRPLLGIVQPMLQGIMNRLCKSNSEQPNRGLDDST

Experiments:
[1] = target: A366 peptide of STING
[2] = target: S366 peptide of STING
[3] = test system: A366 peptide; assay: screening of kinases for S366 of STING (33P-ATP); type: biochemical; conditions: kinase mixed with peptide and 33P-ATP
Experimental: (§1) The activity of 217 protein kinase targets were evaluated against 2 peptides (A366 and S366) as substrate. Protein kinases were mixed with each peptide and ^33P-ATP and then activity (CPM) was measured. The below kinases were identified as phosphorylating S366 in STING. Identification of kinases which target this serine opens up novel avenues for drug discovery. Drugs that target this association may inhibit STING activity and be used for therapeutic purposes to inhibit STING activity. STING over activity may lead to inflammatory diseases which can exacerbate cancer.

[4] = test system: S366 peptide; assay: screening of kinases for S366 of STING (33P-ATP); type: biochemical; conditions: for Fold inducton: S366 peptide vs A366 peptide; for Activity, S366 peptide: kinase mixed with peptide and 33P-ATP
Experimental: as §1

Molecule | Activity (cpm), kinase mixed with peptide and 33P-ATP [1] [cpm] | Activity (cpm), kinase mixed with peptide and 33P-ATP [2] [cpm] | Activity, A366 peptide [3] [cpm] | Fold inducton [4] | Activity, S366 peptide [4] [cpm]
B1 | 6600 | 16700 | 6603 | 2.52 | 16651
B2 | 6980 | 26300 | 6977 | 3.77 | 26284
B3 | 1330 | 16000 | 1327 | 12.03 | 15966
